Test results as given in patent publication US20160256527A1 (ONCOMED PHARMACEUTICALS, published 2016).

Molecular target: T1, membrane bound single chain human GITRL trimer (human, UniProt Q9UNG2 29-177)
T1 construct: Expressed on the surface of transiently transfected HEK-293 cells (co-transfected with GFP); also called single chain hGITRL trimer
T1 sequence: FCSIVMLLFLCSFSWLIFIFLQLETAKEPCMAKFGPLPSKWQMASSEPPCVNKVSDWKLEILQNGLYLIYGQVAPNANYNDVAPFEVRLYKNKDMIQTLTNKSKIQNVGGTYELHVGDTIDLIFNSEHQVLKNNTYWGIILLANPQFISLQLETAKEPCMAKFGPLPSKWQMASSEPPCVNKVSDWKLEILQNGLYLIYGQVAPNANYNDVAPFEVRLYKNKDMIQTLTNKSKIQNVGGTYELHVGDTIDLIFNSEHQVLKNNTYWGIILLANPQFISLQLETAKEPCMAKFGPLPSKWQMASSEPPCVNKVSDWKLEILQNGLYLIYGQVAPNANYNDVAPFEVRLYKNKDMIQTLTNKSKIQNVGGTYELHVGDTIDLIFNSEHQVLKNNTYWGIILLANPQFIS
Experiment: flow cytometry, HEK-293 cells transfected with membrane bound single chain hGITRL trimer, PE anti-human Fc
Protocol: FIG. 2. FACS analysis of a membrane bound single chain GITRL trimer and soluble GITR. HEK293 cells were transiently transfected with an expression vector encoding a membrane bound single chain human GITRL trimer and a second expression vector encoding green fluorescent protein (GFP). Transfected cells were incubated with soluble human GITR-Fc fusion protein and analyzed by flow cytometry. Positive binding is determined by observation of cells within the inset box of the FACS plot.
To test the ability of a single chain hGITRL trimer to bind human GITR, binding studies were conducted. Human HEK-293 cells were transiently co-transfected with expression vectors encoding (1) the membrane bound single chain hGITRL trimer construct described above and (2) green fluorescent protein (GFP) as a transfection marker. Twenty-four hours post-transfection, the cells were incubated with hGITR-Fc or a control fusion protein. The cells were stained with a PE-conjugated anti-human Fc secondary antibody and analyzed by flow cytometry.

- binding result: binds
B1: soluble human GITR-Fc fusion protein (Fc fusion, UniProt Q9Y5U5 26-162, looked up)
chain: QRPTGGPGCGPGRLLLGTGTDARCCRVHTTRCCRDYPGEECCSEWDCMCVQPEFHCGDPCCTTCRHHPCPPGQGVQSQGKFSFGFQCIDCASGTFSGGHEGHCKPWTDCTQFGFLTVFPGNKTHNAVCVPGSPPAEP
notes: also called hGITR-Fc; not shown: Fc region
